The values that follow are results of earlier work, collected in publication PMC3001128.

Some targets named below: CD48 IgV (UniProt P18181); CD58 IgV (Homo sapiens) (UniProt P19256); GITR (Homo sapiens) (UniProt Q9Y5U5); NTB-A (Homo sapiens) (UniProt Q96DU3).
Data set [1] has as its target SLAM (CD150) (Homo sapiens) (UniProt Q13291).

Chain of UniProt Q9Y5U5 (Q9Y5U5 26-241): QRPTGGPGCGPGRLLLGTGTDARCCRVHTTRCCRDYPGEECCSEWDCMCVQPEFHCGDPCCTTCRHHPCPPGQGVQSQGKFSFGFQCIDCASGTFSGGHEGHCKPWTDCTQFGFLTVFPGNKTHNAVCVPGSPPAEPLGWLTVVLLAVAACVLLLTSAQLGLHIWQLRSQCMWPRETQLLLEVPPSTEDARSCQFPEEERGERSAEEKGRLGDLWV
Chain of UniProt P18181 (P18181 29-125): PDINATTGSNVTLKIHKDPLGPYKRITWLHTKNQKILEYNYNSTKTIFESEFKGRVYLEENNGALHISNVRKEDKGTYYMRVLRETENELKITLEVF
Chain of UniProt P19256 (P19256 30-121): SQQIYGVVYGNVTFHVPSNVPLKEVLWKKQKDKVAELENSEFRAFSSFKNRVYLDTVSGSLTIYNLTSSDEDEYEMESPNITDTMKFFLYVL

As to 2B4 IgV (from UniProt Q07763), the Kd (commonly the constant that tells how readily two partners part at equilibrium) with CD48 IgV is 4 µM.
Consider CD2 IgV (from UniProt P06729), for which the Kd with CD58 IgV (Homo sapiens) is 10 µM.
As for GITRL (from UniProt Q9UNG2), in the data set with GITR (Homo sapiens), the Kd is 0.56 µM.
For the substance NTB-A (from UniProt Q96DU3), the Kd with NTB-A (Homo sapiens) is 2 µM.
On to SLAM (CD150) (from UniProt Q13291), for which the Kd in data set [1] was 200 µM.
